Experimental data reported in article PMC9482650, “Quantitative fragmentomics allow affinity mapping of interactomes” (Nature Communications, 2022).

Legend:
Experiment in all cases: holdup assay
Set-up in all cases: key: below the threshold = too weak to quantify, mostly under pKd 3.1 to 4
Conditions in all cases: plain residues with an end cap or a label only (N-terminal biotin on a linker: ado-ado)
[1] = molecular target: T1, PDZRN3_1, Q9UPQ7
T1 sequence (Q9UPQ7 244-349, limits assumed, looked up): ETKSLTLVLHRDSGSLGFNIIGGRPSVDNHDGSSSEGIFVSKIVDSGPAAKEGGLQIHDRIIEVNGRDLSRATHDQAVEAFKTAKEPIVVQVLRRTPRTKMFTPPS

[2] = molecular target: PDZRN4_1, Q6ZMN7
Sequence of PDZRN4_1, Q6ZMN7 (Q6ZMN7 213-318): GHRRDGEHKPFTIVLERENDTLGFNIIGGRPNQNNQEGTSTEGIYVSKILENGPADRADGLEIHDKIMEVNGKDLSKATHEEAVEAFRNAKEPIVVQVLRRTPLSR

[3] = molecular target: MAGI2_6, Q86UL8
Sequence of MAGI2_6, Q86UL8 (Q86UL8 1141-1229): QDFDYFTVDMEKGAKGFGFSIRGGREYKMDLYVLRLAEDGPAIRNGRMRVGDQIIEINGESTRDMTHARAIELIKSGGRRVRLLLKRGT

[4] = molecular target: Inadl_1, Q8NI35
Sequence of Inadl_1, Q8NI35 (Q8NI35 113-229): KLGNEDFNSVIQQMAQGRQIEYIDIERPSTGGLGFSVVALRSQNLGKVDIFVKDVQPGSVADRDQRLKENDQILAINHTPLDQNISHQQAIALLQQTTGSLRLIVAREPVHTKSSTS

[5] = molecular target: SNX27, Q96L92
[6] = molecular target: DLG4_3, P78352
Sequence of DLG4_3, P78352 (P78352 306-403): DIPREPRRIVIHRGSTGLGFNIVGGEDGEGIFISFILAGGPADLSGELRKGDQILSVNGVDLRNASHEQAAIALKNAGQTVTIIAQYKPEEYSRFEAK

[7] = molecular target: IL16_4, Q14005
Sequence of IL16_4, Q14005 (Q14005 1229-1329): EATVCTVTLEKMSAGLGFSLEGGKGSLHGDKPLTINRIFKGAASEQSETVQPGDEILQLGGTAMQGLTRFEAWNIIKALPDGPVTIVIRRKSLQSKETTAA

[8] = molecular target: T2, RADIL, Q96JH8
T2 sequence (Q96JH8 971-1071, limits assumed, looked up): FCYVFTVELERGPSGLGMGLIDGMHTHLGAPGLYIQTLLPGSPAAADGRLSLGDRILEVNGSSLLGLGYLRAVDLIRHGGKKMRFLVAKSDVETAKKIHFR

[9] = molecular target: Inadl_6, Q8NI35
Sequence of Inadl_6, Q8NI35 (Q8NI35 1058-1167): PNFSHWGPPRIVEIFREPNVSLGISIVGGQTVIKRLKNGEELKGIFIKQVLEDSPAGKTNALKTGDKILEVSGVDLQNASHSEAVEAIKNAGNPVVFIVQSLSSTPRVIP

[10] = molecular target: GORASP1, Q9BQQ3
Sequence of GORASP1, Q9BQQ3 (Q9BQQ3 1-208): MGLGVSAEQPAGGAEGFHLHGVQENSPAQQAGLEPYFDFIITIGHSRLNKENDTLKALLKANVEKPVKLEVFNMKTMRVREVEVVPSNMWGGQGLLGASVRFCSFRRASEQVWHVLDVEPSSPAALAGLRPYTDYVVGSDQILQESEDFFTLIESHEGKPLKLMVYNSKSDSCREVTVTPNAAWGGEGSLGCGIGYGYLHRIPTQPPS

[11] = molecular target: PICK1, Q9NRD5
Sequence of PICK1, Q9NRD5 (Q9NRD5 17-115): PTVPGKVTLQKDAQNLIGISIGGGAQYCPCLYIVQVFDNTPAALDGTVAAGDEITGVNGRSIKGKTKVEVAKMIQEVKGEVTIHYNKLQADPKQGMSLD

[12] = molecular target: T3, GRIP1_3, Q9Y3R0
T3 sequence (Q9Y3R0 247-346, limits assumed, looked up): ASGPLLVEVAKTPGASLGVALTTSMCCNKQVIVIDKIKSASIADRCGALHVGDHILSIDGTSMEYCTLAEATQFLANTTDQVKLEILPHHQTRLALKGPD

[13] = molecular target: MAGI2_5, Q86UL8
Sequence of MAGI2_5, Q86UL8 (Q86UL8 915-1017): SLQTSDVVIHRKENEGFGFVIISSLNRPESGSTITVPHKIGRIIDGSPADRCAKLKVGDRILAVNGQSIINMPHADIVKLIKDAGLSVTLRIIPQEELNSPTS

[14] = molecular target: GRIP2_7, Q9C0E4
Sequence of GRIP2_7, Q9C0E4 (Q9C0E4 934-1023): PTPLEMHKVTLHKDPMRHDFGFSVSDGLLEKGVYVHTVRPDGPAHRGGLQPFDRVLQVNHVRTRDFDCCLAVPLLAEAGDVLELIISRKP

[15] = molecular target: FRMPD4, Q14CM0
Sequence of FRMPD4, Q14CM0 (Q14CM0 67-160): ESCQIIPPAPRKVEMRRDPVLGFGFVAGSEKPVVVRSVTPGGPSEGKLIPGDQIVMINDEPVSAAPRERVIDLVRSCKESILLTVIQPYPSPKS

[16] = molecular target: T4, DFNB31_1, Q9P202
T4 sequence (Q9P202 135-233, limits assumed, looked up): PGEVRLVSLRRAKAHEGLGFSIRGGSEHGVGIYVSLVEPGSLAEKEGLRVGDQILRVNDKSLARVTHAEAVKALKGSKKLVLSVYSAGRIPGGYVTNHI

[17] = molecular target: T5, TX1BP3, O14907
T5 sequence (O14907 10-122, limits assumed, looked up): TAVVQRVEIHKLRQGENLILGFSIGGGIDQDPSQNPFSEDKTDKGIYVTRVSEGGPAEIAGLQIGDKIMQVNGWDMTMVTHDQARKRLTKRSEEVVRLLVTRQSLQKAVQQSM

[18] = molecular target: MAGI1_2, Q96QZ7
Sequence of MAGI1_2, Q96QZ7 (Q96QZ7 456-580): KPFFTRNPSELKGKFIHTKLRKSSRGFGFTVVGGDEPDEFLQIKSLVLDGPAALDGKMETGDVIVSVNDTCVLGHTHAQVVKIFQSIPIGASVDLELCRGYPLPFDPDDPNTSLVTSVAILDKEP

[19] = molecular target: LNX1_3, Q8TBB1
Sequence of LNX1_3, Q8TBB1 (Q8TBB1 500-596): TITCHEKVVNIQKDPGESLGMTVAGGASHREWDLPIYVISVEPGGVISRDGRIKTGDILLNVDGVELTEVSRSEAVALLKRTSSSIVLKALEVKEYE

[20] = molecular target: GRIP2_4, Q9C0E4
Sequence of GRIP2_4, Q9C0E4 (Q9C0E4 446-548): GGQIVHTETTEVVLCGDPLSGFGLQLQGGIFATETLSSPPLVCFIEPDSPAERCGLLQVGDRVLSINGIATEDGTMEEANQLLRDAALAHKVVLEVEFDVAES

[21] = molecular target: GIPC2, Q8TF65
Sequence of GIPC2, Q8TF65 (Q8TF65 112-203): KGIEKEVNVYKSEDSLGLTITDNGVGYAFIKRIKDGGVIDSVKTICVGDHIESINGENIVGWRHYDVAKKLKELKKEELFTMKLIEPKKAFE

[22] = molecular target: T6, APBA3_1, O96018
T6 sequence (O96018 389-490, limits assumed, looked up): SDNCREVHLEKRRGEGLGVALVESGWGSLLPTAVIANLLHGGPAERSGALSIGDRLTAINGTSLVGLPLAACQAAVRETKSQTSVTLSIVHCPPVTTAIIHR

[23] = molecular target: LNX1_2, Q8TBB1
Sequence of LNX1_2, Q8TBB1 (Q8TBB1 371-470): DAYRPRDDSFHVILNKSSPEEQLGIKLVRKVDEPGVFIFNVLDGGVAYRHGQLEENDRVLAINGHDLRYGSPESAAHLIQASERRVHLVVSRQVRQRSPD

[24] = molecular target: SCRIB_3, Q14160
Sequence of SCRIB_3, Q14160 (Q14160 999-1103): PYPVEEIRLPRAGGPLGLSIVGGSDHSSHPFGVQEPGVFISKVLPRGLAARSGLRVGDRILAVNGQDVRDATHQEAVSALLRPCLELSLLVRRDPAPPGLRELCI

[25] = molecular target: T7, GRIP1_5, Q9Y3R0
T7 sequence (Q9Y3R0 568-668, limits assumed, looked up): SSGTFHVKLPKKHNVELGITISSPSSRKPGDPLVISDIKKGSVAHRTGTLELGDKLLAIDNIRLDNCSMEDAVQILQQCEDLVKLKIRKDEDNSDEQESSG

[26] = molecular target: DLG5_1, Q8TDM6
Sequence of DLG5_1, Q8TDM6 (Q8TDM6 617-713): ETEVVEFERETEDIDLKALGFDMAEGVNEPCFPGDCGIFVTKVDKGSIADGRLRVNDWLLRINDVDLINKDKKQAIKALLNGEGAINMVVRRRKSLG

[27] = molecular target: MAGI1_1, Q96QZ7
Sequence of MAGI1_1, Q96QZ7 (Q96QZ7 1-106): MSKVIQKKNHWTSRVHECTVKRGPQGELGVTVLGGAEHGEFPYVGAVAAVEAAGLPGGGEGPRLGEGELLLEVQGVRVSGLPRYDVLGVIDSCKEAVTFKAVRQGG

[28] = molecular target: T8, SNTB1, Q13884
T8 sequence (Q13884 107-205, limits assumed, looked up): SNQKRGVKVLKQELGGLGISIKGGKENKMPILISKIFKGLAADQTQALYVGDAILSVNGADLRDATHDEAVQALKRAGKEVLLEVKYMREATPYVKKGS

[29] = molecular target: LNX1_1, Q8TBB1
Sequence of LNX1_1, Q8TBB1 (Q8TBB1 261-371): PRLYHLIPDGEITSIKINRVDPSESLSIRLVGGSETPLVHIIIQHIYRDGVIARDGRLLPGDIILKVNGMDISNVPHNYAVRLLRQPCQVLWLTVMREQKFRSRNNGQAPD

Row | pKd [1] | pKd [2] | pKd [3] | pKd [4] | pKd [5] | pKd [6] | pKd [7] | pKd [8] | pKd [9] | pKd [10] | pKd [11] | pKd [12] | pKd [13] | pKd [14] | pKd [15] | pKd [16] | pKd [17] | pKd [18] | pKd [19] | pKd [20] | other results | Binder
1 | below the threshold | below the threshold | below the threshold | below the threshold | below the threshold | below the threshold | below the threshold | below the threshold | below the threshold | below the threshold | below the threshold | below the threshold | below the threshold | below the threshold | below the threshold | below the threshold | below the threshold | below the threshold | below the threshold | below the threshold | pKd [21]: 3.79; pKd [22]: below the threshold; pKd [23]: below the threshold; pKd [24]: 4.04; pKd [25]: below the threshold; pKd [26]: below the threshold; pKd [27]: below the threshold; pKd [28]: below the threshold; pKd [29]: below the threshold | GSQSQVETEA [FKBP4, Q02790]
2 | 4.99 | 5.22 | 3.8 | below the threshold | 5.72 | 3.95 | below the threshold | below the threshold | 3.83 | below the threshold | below the threshold | below the threshold | 3.72 | below the threshold | 4.49 | 4.28 | 4.12 | 3.63 | below the threshold | below the threshold | pKd [21]: 4.08; pKd [22]: below the threshold; pKd [23]: below the threshold; pKd [24]: 5.13; pKd [25]: below the threshold; pKd [26]: below the threshold; pKd [27]: below the threshold; pKd [28]: 4.67; pKd [29]: below the threshold | SRPHTNETSL [MCC, P23508]
3 | 3.52 | 3.82 | 3.72 | below the threshold | 4.38 | 4.5 | below the threshold | 4.14 | 3.53 | 3.76 | below the threshold | below the threshold | 3.63 | 3.52 | 3.55 | 3.58 | 3.91 | 4.91 | below the threshold | below the threshold | pKd [21]: below the threshold; pKd [22]: below the threshold; pKd [23]: 4.1; pKd [24]: 3.84; pKd [25]: below the threshold; pKd [26]: 3.59; pKd [27]: 3.61; pKd [28]: 4.34; pKd [29]: 3.69 | ATKDKKITTV [EXOC4, Q96A65]
